{"source": "patent US9512196B2", "about": "“Short-form human MD-2 as a negative regulator of toll-like receptor 4 signaling” (Cedars-Sinai Medical Center, priority 2008, dated 2016)", "key": {"TLR4 [1]": {"molecular_target": "T1, TLR4 (Homo sapiens, UniProt O00206)", "T1 construct": "expressed in transfected cells; host or cells: HEK293", "T1 sequence (O00206 24-839)": "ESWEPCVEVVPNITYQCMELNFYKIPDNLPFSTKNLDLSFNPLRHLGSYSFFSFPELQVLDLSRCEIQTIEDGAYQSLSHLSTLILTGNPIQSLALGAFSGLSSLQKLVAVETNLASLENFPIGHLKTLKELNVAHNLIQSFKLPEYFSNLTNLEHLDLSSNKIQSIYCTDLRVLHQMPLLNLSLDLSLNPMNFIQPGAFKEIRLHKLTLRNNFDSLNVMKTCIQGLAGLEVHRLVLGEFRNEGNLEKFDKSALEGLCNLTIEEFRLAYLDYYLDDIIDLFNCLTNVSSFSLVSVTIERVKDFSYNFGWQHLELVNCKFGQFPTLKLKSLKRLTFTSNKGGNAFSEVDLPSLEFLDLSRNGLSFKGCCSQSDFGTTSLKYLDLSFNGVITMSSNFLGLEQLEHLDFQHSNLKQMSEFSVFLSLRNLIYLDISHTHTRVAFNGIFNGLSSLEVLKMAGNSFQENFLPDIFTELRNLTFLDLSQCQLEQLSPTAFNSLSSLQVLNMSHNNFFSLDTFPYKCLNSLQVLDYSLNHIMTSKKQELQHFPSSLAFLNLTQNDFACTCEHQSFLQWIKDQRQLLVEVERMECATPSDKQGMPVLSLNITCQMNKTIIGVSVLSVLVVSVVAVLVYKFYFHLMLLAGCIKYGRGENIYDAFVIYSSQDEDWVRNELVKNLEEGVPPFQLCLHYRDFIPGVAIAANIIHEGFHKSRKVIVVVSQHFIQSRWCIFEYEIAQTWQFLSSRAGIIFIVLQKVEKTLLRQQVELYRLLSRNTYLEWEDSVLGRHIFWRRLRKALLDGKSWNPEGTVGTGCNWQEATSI", "assay": "Co-immunoprecipitation with Flag-tagged TLR4 in HEK293 cells", "type": "binding", "details": "Myc-tagged protein, anti-Flag co-immunoprecipitation", "description": "(§1) (A) Cells stably expressing CFP-tagged TLR4 were transiently transfected with plasmids encoding wild-type MD-2 (upper panels) or MD-2s (lower panels). 24 h later, cells were incubated with an anti-Myc antibody and cross-liked with Alexa 647-conjugated anti-mouse polyclonal secondary antibody. (B) HEK293 cells were transiently transfected with a plasmid encoding for Flag-tagged TLR4 (lane 2) and cotransfected with either a Myc-tagged MD-2 (lane 3) or a Myc-tagged MD-2s (lanes 1 and 4) expressing plasmid. Co-immunoprecipitation experiments were then performed using an anti-Flag antibody (lanes 2-4) or an IgG isotype control antibody (lane 1). Samples were fractionated by SDS-PAGE and immunoblotting with an anti-Myc antibody was performed. Experiment shown is representative of 4 separate experiments.\nHEK 293 cells were seeded into 100 mm dishes (1.5×10^6) 24 h prior to transfection. Transfections were performed according to the manufacturer's instructions using lipofectamine. […] For immunoblotting, primary antibodies were detected using horseradish peroxidase-conjugated secondary antibodies, followed by enhanced chemiluminescence (Amersham Biosciences).\nTo address this possibility, co-localization studies to examine the cellular distribution of MD-2s with respect to TLR4 were performed. […] Next whether MD-2s is physically associated with TLR4 was assessed. […]"}, "TLR4 [2]": {"molecular_target": "T1, TLR4", "assay": "Confocal co-localization with CFP-tagged TLR4 in HEK293 cells", "type": "cell-based", "details": "confocal analysis, anti-Myc staining", "description": "as §1\nTo address this possibility, co-localization studies to examine the cellular distribution of MD-2s with respect to TLR4 were performed. HEK293 cells stably expressing TLR4CFP were subsequently transiently transfected with a plasmid encoding either MD-2 (FIG. 4A, upper panel) or MD-2s (FIG. 4A, lower panel) and stained with an anti-Myc antibody. […] Next whether MD-2s is physically associated with TLR4 was assessed. […]"}, "TLR4 [3]": {"molecular_target": "T1, TLR4", "assay": "IL-8 secretion by HEK293 TLR4 reporter cells after LPS", "type": "cell-based", "description": "(A) HEK-293 cells stably transfected with TLR4 and a NF-κB reporter gene were treated with supernatants containing either MD-2 or MD-2s as described in the examples herein. Cells were left untreated or stimulated with LPS for 24 h. Mean relative stimulation of luciferase activity±S.D. for a representative experiment, each performed in triplicate, is shown. (B) HEK-293 cells stably transfected with TLR4 and a NF-κB reporter gene were transiently transfected with plasmids encoding for either MD-2, MD-2s or CD14 as shown. 24 h later, cells were left untreated or stimulated with LPS (250 ng/ml) for 6 h. Mean relative stimulation of luciferase activity±SD for a representative experiment, each performed in triplicate, is shown. (C) and (D) Supernatants were also collected and measured for IL-8 secretion.\nThe requirement for MD-2s in LPS mediated NF-κB activation was assessed. It has been shown that the soluble form of wild-type MD-2 confers LPS responsiveness to cells expressing TLR4; therefore, it was investigated if soluble MD-2s was also bioactive. Culture supernatants were obtained from HEK293 cells transiently expressing control vector, MD-2, or MD-2s, and incubated with HEK293 cells stably transfected with TLR4 and an NF-κB-dependent luciferase reporter gene. […]"}}, "data": [{"molecule": "MD-2s: alternatively spliced isoform of human MD-2 lacking exon 2, with D38G substitution; expressed and secreted protein sequences in Table 1 (protein, listed as Homo sapiens) chain 1: MLPFLFFSTLFSSIFTEAQKQYWVCNSSDASISYTYCGRDLKQLYFNLYITVNTMNLPKRKEVICRGSDDDYSFCRALKGETVNTTISFSFKGIKFSKGKYKCVVEAISGSPEEMLFCLEFVILHQPNSN chain 2: EAQKQYWVCNSSDASISYTYCGRDLKQLYFNLYITVNTMNLPKRKEVICRGSDDDYSFCRALKGETVNTTISFSFKGIKFSKGKYKCVVEAISGSPEEMLFCLEFVILHQPNSN", "values": [{"measurement": "Interaction with TLR4", "setting": "TLR4 [1]", "result": "direct interaction between MD-2s and TLR4 was observed"}, {"measurement": "Cellular distribution with respect to TLR4", "setting": "TLR4 [2]", "result": "same cellular distribution"}, {"measurement": "LPS-dependent IL-8 secretion conferred by soluble protein", "setting": "TLR4 [3]; culture supernatants added to HEK293 TLR4 reporter cells", "result": "could not confer LPS responsiveness"}, {"measurement": "LPS-mediated IL-8 secretion on transient expression", "setting": "TLR4 [3]; plasmid transfected with CD14 into HEK293 TLR4/NF-κB reporter cells", "result": "unable to induce"}]}]}
